Data: PMC1331984
Residue numbers refer to the chain shown, from its start. Like-named read-outs stand apart in the source and are kept apart here.

T1: TraI36 (F TraI relaxase domain) (Escherichia coli F plasmid (F factor), UniProt P14565 1-330)
T1 sequence: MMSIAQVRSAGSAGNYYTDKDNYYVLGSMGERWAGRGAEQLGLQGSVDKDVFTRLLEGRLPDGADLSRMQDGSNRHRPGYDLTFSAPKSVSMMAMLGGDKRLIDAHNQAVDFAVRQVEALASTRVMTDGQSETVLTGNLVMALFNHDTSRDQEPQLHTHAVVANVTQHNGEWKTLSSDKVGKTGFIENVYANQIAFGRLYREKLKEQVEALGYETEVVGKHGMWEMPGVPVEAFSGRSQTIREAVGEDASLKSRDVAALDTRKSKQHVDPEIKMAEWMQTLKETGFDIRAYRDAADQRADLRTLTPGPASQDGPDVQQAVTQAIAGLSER

B1: G167'C/C166'G Hairpin (structured_DNA)
DNA: CGAAAAACTTGTTTTTGCGTGGGGTGTGGT
B2: No Hairpin (ssDNA)
DNA: CGTTTTTGTTGTTTTTGCGTGGGGTGTGGT
B3: WT Hairpin (structured_DNA)
DNA: B1 DNA with C1G, G2C
B4: WT 17mer (ssDNA)
DNA: TTTGCGTGGGGTGTGGT
B5: G144'C 17mer (ssDNA)
DNA: TTTGCGTGGGCTGTGGT
B6: G167'C/C166'G/G151'C/C150'G Hairpin (structured_DNA)
DNA: B1 DNA with G17C, C18G
B7: G151'C/C150'G 17mer (ssDNA)
DNA: TTTCGGTGGGGTGTGGT
B8: G151'C/C150'G Hairpin (structured_DNA)
DNA: GCAAAAACTTGTTTTTCGGTGGGGTGTGGT

Experiments:
[1] = biological target: T1, TraI36 (F TraI relaxase domain); assay: fluorescence anisotropy and intensity
[2] = biological target: T1, TraI36 (F TraI relaxase domain); assay: fluorescence anisotropy and intensity; remark: listed apart in the source
[3] = biological target: T1, TraI36 (F TraI relaxase domain); assay: competition
[4] = biological target: T1, TraI36 (F TraI relaxase domain); assay: fluorescence dissociation kinetics

Binder	Kd [2]	other results
B1	–	Kd [1]: 12 ± 1.8 nM
B2	16 ± 1 nM	–
B3	–	Kd [1]: 6.8 ± 1.2 nM
B4	39 ± 0.8 nM	–
B5	–	binding result [3]: no binding
B6	78 ± 2 nM	–
B7	390 ± 9 nM	–
B8	–	binding result [4]: binds
